Source: US20150299285A1
Where two headings read alike, the source gives them in different places.

Assays:
[1] = target: insulin receptor subtype B (human) (UniProt P06213); assay: cell-based or functional assay
[2] = target: insulin receptor subtype A (human) (UniProt P06213); assay: cell-based or functional assay
[3] = target: insulin receptor subtype A (human) (UniProt P06213); assay: IR-A Binding, competition with 125I-insulin
[4] = target: insulin receptor subtype B (human) (UniProt P06213); assay: cell-based or functional assay; remark: listed apart in the source
[5] = target: insulin receptor subtype A (human) (UniProt P06213); assay: cell-based or functional assay; remark: listed apart in the source

native IGF-1 (from UniProt P05019 49-118) (ligand)
EC50, Receptor Phosphorylation [1]: 16.6 nM
EC50, phosphorylation (FIG. 18B) [1]: 32.4 nM
IC50 (so named in p-1063), Phosphorylation at Insulin Receptor Subtype B [1]: 19.7 nM
EC50, IR-A Phosphorylation [2]: 29.2 nM
EC50, Receptor Phosphorylation [2]: 10 nM
EC50, phosphorylation (FIG. 18A) [2]: 2.24 nM
IC50 (so named in p-1063), Phosphorylation at Insulin Receptor Subtype A [2]: 146 nM
IC50 [3]: 18.8 nM
EC50, Receptor Phosphorylation [4]: 32.2 nM
EC50, Receptor Phosphorylation [5]: 6.48 nM
